Assay results from the supplement of paper PMC10567573.

B1: TRIM55 (parent)
chain: ICPICLEMFTKPVVILPCQHNLCR

Variants of: B1
Assay: protein stability index of a GFP-peptide fusion (GPS, HEK-293T) (PSI 1-6); higher = more stable
Details: c terminus: a fixed tail appended
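Further: lentivirally expressed fusions sorted by FACS into six bins by GFP to DsRed ratio, PSI derived from sequencing read proportions per bin multiplied by bin number.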

Point of comparison: ICPICLEMFTKPVVILPCEHNLCR, protein stability index 2.28. Against it:
- ICPICLEMFTKPVTILPCQHNLCR — higher, 2.63
- ICPICLEMFTKPVWILPCQHNLCR — lower, 1.89
- ICPICLEMFTKPVYILPCQHNLCR — lower, 2.15
- ICPICLEMFTKPVVALPCQHNLCR — higher, 2.84
- ICPICLEMFTKPVVCLPCQHNLCR — higher, 2.71
- ICPICLEMFTKPVVDLPCQHNLCR — higher, 2.81
- ICPICLEMFTKPVVELPCQHNLCR — higher, 3.32
- ICPICLEMFTKPVVFLPCQHNLCR — higher, 2.32
- ICPICLEMFTKPVVGLPCQHNLCR — higher, 2.53
- ICPICLEMFTKPVVHLPCQHNLCR — higher, 2.38
- ICPICLEMFTKPVVKLPCQHNLCR — lower, 2.09
- ICPICLEMFTKPVVLLPCQHNLCR — higher, 2.6
- ICPICLEMFTKPVVMLPCQHNLCR — lower, 2
- ICPICLEMFTKPVVNLPCQHNLCR — higher, 2.5
- ICPICLEMFTKPVVPLPCQHNLCR — higher, 2.69
- ICPICLEMFTKPVVQLPCQHNLCR — higher, 3.22
- ICPICLEMFTKPVVRLPCQHNLCR — lower, 2.18
- ICPICLEMFTKPVVSLPCQHNLCR — higher, 2.74
- ICPICLEMFTKPVVTLPCQHNLCR — higher, 2.88
- ICPICLEMFTKPVVVLPCQHNLCR — lower, 2.14
- ICPICLEMFTKPVVWLPCQHNLCR — lower, 1.85
- ICPICLEMFTKPVVYLPCQHNLCR — lower, 2.02
- ICPICLEMFTKPVVIAPCQHNLCR — higher, 2.56
- ICPICLEMFTKPVVICPCQHNLCR — higher, 2.4
- ICPICLEMFTKPVVIDPCQHNLCR — higher, 2.61
- ICPICLEMFTKPVVIEPCQHNLCR — higher, 2.35
- ICPICLEMFTKPVVIFPCQHNLCR — lower, 2.12
- ICPICLEMFTKPVVIGPCQHNLCR — higher, 3.03
- ICPICLEMFTKPVVIHPCQHNLCR — higher, 2.86
- ICPICLEMFTKPVVIIPCQHNLCR — lower, 2.05
- ICPICLEMFTKPVVIKPCQHNLCR — higher, 2.58
- ICPICLEMFTKPVVIMPCQHNLCR — higher, 2.38
- ICPICLEMFTKPVVINPCQHNLCR — higher, 2.67
- ICPICLEMFTKPVVIPPCQHNLCR — higher, 3.02
- ICPICLEMFTKPVVIQPCQHNLCR — higher, 2.62
- ICPICLEMFTKPVVIRPCQHNLCR — lower, 2.24
- ICPICLEMFTKPVVISPCQHNLCR — higher, 2.4
- ICPICLEMFTKPVVITPCQHNLCR — higher, 2.77
- ICPICLEMFTKPVVIVPCQHNLCR — higher, 2.68
- ICPICLEMFTKPVVIWPCQHNLCR — higher, 2.38
- ICPICLEMFTKPVVIYPCQHNLCR — higher, 2.39
- ICPICLEMFTKPVVILACQHNLCR — lower, 1.97
- ICPICLEMFTKPVVILCCQHNLCR — lower, 1.8
- ICPICLEMFTKPVVILDCQHNLCR — lower, 2.27
- ICPICLEMFTKPVVILECQHNLCR — higher, 2.62
- ICPICLEMFTKPVVILFCQHNLCR — higher, 2.53
- ICPICLEMFTKPVVILGCQHNLCR — lower, 1.83
- ICPICLEMFTKPVVILHCQHNLCR — higher, 2.35
- ICPICLEMFTKPVVILICQHNLCR — lower, 2.18
- ICPICLEMFTKPVVILKCQHNLCR — lower, 1.93
- ICPICLEMFTKPVVILLCQHNLCR — higher, 2.44
- ICPICLEMFTKPVVILMCQHNLCR — lower, 1.7
- ICPICLEMFTKPVVILNCQHNLCR — lower, 1.86
- ICPICLEMFTKPVVILQCQHNLCR — lower, 2
- ICPICLEMFTKPVVILRCQHNLCR — lower, 2.17
- ICPICLEMFTKPVVILSCQHNLCR — higher, 2.91
- ICPICLEMFTKPVVILTCQHNLCR — higher, 2.32
- ICPICLEMFTKPVVILVCQHNLCR — higher, 2.33
- ICPICLEMFTKPVVILWCQHNLCR — higher, 2.31
- ICPICLEMFTKPVVILYCQHNLCR — lower, 1.99
- ICPICLEMFTKPVVILPAQHNLCR — lower, 1.75
- ICPICLEMFTKPVVILPDQHNLCR — higher, 2.53
- ICPICLEMFTKPVVILPEQHNLCR — higher, 2.48
- ICPICLEMFTKPVVILPFQHNLCR — lower, 1.89
- ICPICLEMFTKPVVILPGQHNLCR — lower, 2.26
- ICPICLEMFTKPVVILPHQHNLCR — lower, 2.27
- ICPICLEMFTKPVVILPIQHNLCR — lower, 2.02
- ICPICLEMFTKPVVILPKQHNLCR — lower, 1.89
- ICPICLEMFTKPVVILPLQHNLCR — lower, 1.77
- ICPICLEMFTKPVVILPMQHNLCR — lower, 2.16
- ICPICLEMFTKPVVILPNQHNLCR — lower, 1.81
- ICPICLEMFTKPVVILPPQHNLCR — lower, 2.11
- ICPICLEMFTKPVVILPQQHNLCR — lower, 2.19
- ICPICLEMFTKPVVILPRQHNLCR — lower, 1.45
- ICPICLEMFTKPVVILPSQHNLCR — lower, 2.23
- ICPICLEMFTKPVVILPTQHNLCR — lower, 1.98
- ICPICLEMFTKPVVILPVQHNLCR — lower, 1.91
- ICPICLEMFTKPVVILPWQHNLCR — lower, 1.95
- ICPICLEMFTKPVVILPYQHNLCR — lower, 1.79
- ICPICLEMFTKPVVILPCAHNLCR — lower, 2.05
- ICPICLEMFTKPVVILPCCHNLCR — lower, 1.98
- ICPICLEMFTKPVVILPCDHNLCR — higher, 2.54
- ICPICLEMFTKPVVILPCFHNLCR — lower, 2.05
- ICPICLEMFTKPVVILPCGHNLCR — higher, 2.85
- ICPICLEMFTKPVVILPCHHNLCR — lower, 2.09
- ICPICLEMFTKPVVILPCIHNLCR — higher, 2.68
- ICPICLEMFTKPVVILPCKHNLCR — lower, 2.01
- ICPICLEMFTKPVVILPCLHNLCR — lower, 1.84
- ICPICLEMFTKPVVILPCMHNLCR — lower, 2.15
- ICPICLEMFTKPVVILPCNHNLCR — higher, 2.34
- ICPICLEMFTKPVVILPCPHNLCR — lower, 2.12
- ICPICLEMFTKPVVILPCRHNLCR — lower, 2.25
- ICPICLEMFTKPVVILPCSHNLCR — lower, 2.23
